# Reference: US20250361282A1 (Bayer, published 2025)
# Where “and” joins values, the source holds several entries; their conditions need not be identical. Identical values can stand only once.
# T1: human NPRA (human, UniProt P16066 33-1061)
# T1 sequence (looked up): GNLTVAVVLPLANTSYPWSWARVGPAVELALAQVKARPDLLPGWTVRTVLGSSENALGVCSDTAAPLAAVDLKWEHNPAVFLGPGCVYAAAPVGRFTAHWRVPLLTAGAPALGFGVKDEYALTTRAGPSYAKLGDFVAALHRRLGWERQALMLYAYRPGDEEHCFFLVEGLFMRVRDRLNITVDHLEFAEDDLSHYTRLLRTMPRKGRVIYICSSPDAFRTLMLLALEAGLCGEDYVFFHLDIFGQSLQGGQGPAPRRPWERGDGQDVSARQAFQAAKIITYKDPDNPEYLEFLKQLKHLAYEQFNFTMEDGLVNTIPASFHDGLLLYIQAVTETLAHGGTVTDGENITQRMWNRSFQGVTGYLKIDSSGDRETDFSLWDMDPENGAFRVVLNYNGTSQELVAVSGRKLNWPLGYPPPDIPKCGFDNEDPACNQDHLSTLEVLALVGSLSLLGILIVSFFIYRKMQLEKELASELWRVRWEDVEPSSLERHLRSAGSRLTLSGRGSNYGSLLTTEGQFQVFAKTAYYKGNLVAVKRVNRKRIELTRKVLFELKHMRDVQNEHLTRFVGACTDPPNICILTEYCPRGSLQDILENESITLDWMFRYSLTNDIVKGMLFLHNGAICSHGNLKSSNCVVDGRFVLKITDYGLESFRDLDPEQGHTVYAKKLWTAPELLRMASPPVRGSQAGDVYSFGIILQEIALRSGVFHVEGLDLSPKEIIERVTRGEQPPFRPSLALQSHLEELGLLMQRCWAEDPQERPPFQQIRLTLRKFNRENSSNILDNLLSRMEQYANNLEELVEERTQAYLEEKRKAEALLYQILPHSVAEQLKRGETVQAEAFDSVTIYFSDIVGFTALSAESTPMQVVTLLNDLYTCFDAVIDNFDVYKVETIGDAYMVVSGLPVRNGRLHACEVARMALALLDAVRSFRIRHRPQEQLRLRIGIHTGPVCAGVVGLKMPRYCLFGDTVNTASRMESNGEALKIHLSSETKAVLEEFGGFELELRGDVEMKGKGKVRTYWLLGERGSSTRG
# T2: rat NPR-A (rat, UniProt P18910 29-1057)
# T2 sequence (looked up): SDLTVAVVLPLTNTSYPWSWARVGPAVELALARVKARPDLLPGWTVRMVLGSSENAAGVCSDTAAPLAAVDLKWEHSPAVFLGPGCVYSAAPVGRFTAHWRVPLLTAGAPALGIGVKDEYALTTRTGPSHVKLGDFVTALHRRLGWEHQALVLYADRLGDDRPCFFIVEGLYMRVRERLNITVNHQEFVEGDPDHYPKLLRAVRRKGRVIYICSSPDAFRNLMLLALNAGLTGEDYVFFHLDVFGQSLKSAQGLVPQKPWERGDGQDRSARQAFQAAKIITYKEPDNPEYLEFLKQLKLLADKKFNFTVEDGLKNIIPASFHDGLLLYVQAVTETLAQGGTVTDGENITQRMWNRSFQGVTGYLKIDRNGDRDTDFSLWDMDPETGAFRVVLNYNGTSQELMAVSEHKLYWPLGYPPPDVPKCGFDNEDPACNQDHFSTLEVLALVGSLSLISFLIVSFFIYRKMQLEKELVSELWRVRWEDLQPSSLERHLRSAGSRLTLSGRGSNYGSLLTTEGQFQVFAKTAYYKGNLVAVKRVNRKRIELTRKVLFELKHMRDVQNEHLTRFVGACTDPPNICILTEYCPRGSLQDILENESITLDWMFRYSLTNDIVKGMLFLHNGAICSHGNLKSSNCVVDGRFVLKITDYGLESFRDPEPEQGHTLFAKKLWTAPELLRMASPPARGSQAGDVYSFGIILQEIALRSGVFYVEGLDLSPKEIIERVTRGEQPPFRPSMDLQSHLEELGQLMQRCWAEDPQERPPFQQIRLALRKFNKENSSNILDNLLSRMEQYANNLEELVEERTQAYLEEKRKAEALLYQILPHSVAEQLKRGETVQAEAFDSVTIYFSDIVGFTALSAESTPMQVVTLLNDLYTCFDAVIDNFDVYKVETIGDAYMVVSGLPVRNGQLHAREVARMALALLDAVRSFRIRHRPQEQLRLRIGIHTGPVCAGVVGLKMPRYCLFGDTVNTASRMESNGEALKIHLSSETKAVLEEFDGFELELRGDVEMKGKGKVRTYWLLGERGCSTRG
# T3: human NPRA (human, UniProt P16066 33-1061)
# T3 sequence (looked up): T1 sequence (looked up)
# B1: TPP-10361 (antibody, human IgG1, lambda)
# heavy: not shown
# light: QSVLTQPPSVSGAPGQRVTISCTGSSSNIGAGYDVHWYQQLPGTAPKLLIYGSGSGSGSGSGSPDGGSGGSLRRSSCFGGRMDRIGAQSGLGCNSFRYGSYGSGGSGSGSGNRPSGVPDRFSGSKSGTSASLAITGLQAEDEADYYCQSYDSSLSGVVFGGGTKLTVLGQPKAAPSVTLFPPSSEELQANKATLVCLISDFYPGAVTVAWKADSSPVKAGVETTTPSKQSNNKYAASSYLSLTPEQWKSHRSYSCQVTHEGSTVEKTVAPTECS
# B2: TPP-10355 (antibody, human IgG1, lambda)
# heavy: not shown
# light: QSVLTQPPSVSGAPGQRVTISCTGSSSNIGAGYDVHWYQQLPGTAPKLLIYGNSNRPSGVPDRFSGSKSGTSASLAITGLQAEDEADYYCAAWNPNPNPNPNPNGGSGGSLRRSSCFGGRMDRIGAQSGLGCNSFRYGSNPNPNPNPNPNVFGSGTKVTVLGQPKAAPSVTLFPPSSEELQANKATLVCLISDFYPGAVTVAWKADSSPVKAGVETTTPSKQSNNKYAASSYLSLTPEQWKSHRSYSCQVTHEGSTVEKTVAPTECS
# B3: TPP-11156 (antibody, human IgG1, lambda)
# heavy: not shown
# light: QSVLTQPPSVSGAPGQRVTISCTGSSSNIGAGYDVHWYQQLPGTAPKLLIYGNSNRPSGVPDRFSGSKSGTSASLAITGLQAEDEADYYCQSYDSSLSGVVFGGGTKLTVLGQPKAAPSVTLFPPSSEELQANKATLVCLISDFYPGAVTVAWKADSSPVKAGVETTTPSKQSNNKYAASSYLSLTPEQWKSHRSYSCQVTHEGSTVEKTVAPTECS
# B4: TPP-5661 (antibody)
# heavy: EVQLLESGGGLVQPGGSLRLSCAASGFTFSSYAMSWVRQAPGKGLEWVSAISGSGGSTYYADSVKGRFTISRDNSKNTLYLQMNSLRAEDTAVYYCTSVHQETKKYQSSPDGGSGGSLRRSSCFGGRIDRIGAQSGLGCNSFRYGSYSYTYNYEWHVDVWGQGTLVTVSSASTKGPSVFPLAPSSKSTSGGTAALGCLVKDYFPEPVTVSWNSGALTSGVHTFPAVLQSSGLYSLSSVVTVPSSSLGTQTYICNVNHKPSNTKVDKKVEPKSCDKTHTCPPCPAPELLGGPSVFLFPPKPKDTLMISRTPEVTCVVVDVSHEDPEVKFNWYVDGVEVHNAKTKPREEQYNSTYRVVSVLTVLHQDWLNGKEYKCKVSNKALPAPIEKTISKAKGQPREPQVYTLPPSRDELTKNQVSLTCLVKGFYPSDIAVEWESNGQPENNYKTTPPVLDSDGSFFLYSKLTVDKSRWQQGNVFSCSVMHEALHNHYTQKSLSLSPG
# light: B3 light
# B5: TPP-10294 (antibody, human IgG1, lambda)
# heavy: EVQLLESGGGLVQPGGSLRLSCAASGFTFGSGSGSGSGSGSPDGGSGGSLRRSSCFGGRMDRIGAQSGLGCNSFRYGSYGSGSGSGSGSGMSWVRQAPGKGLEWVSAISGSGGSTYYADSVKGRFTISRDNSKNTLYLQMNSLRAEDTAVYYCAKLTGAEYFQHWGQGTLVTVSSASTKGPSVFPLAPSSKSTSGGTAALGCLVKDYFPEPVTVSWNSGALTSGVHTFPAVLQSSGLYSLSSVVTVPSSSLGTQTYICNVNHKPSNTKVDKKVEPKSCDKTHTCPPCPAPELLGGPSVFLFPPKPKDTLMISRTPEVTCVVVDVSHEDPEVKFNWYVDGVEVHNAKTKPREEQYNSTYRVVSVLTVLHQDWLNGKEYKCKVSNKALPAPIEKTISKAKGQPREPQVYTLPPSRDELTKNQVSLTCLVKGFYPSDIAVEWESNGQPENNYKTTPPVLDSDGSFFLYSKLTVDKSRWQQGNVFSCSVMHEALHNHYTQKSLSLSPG
# light: B3 light
# B6: TPP-13061 (antibody, human IgG1, lambda)
# heavy: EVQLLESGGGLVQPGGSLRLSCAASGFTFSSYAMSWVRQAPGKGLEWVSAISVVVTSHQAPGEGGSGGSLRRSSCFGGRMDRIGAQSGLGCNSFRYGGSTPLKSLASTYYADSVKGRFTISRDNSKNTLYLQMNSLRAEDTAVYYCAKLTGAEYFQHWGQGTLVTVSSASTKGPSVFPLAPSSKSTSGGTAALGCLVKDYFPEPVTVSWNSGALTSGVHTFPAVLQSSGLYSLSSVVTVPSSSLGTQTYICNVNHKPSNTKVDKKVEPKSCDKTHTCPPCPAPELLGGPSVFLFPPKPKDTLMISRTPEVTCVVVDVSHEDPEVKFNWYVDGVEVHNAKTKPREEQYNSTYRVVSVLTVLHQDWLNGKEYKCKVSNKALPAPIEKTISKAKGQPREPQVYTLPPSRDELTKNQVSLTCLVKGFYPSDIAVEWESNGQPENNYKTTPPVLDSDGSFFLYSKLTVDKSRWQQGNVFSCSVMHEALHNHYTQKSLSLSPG
# light: B3 light
# B7: TPP-13054 (antibody, human IgG1, lambda)
# heavy: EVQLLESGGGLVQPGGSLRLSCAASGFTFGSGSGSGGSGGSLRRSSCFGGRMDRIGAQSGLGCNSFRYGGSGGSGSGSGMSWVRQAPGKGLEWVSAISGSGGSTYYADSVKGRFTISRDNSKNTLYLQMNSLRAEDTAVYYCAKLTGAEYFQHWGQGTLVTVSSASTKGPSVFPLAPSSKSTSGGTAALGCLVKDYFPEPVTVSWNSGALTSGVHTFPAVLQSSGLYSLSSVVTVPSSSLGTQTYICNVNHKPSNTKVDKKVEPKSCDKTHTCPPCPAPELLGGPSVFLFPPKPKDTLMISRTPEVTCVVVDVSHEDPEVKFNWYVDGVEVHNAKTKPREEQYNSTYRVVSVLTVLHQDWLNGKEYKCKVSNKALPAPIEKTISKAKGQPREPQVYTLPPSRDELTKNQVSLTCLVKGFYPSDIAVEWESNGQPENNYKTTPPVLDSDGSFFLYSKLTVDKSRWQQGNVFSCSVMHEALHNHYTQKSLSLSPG
# light: B3 light
# B8: TPP-10274 (antibody)
# heavy: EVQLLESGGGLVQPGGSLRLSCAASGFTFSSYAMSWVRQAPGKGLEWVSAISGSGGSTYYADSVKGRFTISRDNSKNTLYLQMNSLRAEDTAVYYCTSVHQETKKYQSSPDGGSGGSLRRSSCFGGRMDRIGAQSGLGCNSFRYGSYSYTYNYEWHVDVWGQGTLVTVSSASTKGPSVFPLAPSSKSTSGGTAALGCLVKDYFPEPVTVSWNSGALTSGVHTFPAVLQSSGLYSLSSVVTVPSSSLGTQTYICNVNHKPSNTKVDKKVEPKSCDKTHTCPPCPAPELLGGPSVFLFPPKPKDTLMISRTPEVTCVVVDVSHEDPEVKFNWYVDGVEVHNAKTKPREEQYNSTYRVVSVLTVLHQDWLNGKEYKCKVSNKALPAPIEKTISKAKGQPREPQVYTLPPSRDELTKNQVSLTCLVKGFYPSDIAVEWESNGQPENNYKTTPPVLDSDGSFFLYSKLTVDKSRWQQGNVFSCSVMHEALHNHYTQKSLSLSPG
# light: B3 light
# B9: TPP-13230 (antibody)
# heavy: not shown
# light: B3 light
# B10: TPP-10845 (antibody, human IgG1, lambda)
# heavy: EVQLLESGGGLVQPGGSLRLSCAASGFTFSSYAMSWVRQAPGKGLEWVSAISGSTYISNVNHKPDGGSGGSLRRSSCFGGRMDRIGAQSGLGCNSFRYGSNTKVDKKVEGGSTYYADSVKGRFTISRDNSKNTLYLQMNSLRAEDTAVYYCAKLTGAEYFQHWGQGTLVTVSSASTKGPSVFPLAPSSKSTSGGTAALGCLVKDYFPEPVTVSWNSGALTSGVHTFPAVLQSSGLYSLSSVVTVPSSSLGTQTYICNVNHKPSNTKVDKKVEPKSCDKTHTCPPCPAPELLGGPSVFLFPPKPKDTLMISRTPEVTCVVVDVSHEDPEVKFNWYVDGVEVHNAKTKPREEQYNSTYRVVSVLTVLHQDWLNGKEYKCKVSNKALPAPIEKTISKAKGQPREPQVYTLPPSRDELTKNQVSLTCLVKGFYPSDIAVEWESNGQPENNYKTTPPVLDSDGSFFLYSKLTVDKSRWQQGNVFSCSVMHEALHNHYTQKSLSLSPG
# light: B3 light
# B11: TPP-10282 (antibody, human IgG1, lambda)
# heavy: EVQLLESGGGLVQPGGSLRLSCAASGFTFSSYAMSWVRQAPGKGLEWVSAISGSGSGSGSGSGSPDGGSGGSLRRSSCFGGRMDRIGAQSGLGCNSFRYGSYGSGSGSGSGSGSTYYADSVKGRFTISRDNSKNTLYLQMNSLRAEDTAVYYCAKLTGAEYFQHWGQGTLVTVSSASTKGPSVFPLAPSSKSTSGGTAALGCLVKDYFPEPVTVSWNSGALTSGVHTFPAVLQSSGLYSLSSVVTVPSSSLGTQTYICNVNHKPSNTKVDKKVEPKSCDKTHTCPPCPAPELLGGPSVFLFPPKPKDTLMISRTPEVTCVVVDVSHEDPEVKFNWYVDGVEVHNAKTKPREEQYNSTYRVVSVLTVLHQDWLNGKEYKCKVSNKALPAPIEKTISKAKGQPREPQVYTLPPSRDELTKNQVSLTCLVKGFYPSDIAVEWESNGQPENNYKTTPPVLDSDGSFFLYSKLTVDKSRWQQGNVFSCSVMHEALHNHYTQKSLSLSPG
# light: B3 light
# B12: TPP-10765 (antibody, human IgG1, lambda)
# heavy: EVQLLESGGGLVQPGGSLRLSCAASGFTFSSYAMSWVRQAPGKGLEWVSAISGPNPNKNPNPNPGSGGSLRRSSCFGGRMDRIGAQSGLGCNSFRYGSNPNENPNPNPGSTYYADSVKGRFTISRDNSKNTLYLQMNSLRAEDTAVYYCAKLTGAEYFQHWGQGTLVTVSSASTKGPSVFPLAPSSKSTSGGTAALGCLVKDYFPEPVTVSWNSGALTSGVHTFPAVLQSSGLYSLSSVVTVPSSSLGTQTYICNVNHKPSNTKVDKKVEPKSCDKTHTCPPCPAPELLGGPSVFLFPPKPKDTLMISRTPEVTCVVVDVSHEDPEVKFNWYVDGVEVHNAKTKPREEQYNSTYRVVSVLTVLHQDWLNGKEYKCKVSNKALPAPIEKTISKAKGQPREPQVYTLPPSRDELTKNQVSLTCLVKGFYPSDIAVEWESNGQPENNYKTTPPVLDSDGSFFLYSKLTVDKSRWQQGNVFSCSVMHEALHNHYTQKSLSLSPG
# light: B3 light
# B13: TPP-10847 (antibody, human IgG1, lambda)
# heavy: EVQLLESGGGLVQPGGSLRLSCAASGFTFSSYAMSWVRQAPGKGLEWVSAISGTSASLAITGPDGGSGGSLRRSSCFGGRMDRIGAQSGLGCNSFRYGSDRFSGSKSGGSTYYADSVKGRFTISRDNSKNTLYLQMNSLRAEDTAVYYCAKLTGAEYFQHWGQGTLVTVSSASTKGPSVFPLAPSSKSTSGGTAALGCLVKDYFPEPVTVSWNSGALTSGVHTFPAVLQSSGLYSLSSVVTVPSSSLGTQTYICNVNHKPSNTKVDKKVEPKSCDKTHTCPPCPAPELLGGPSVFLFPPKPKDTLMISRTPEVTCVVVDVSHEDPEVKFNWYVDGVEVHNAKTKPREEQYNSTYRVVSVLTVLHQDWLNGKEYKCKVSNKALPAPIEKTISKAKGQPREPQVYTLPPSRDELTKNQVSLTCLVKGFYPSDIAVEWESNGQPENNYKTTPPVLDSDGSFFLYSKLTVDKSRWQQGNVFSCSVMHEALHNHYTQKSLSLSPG
# light: B3 light
# B14: TPP-10290 (antibody)
# heavy: not shown
# light: B3 light
# B15: TPP-10283 (antibody, human IgG1, lambda)
# heavy: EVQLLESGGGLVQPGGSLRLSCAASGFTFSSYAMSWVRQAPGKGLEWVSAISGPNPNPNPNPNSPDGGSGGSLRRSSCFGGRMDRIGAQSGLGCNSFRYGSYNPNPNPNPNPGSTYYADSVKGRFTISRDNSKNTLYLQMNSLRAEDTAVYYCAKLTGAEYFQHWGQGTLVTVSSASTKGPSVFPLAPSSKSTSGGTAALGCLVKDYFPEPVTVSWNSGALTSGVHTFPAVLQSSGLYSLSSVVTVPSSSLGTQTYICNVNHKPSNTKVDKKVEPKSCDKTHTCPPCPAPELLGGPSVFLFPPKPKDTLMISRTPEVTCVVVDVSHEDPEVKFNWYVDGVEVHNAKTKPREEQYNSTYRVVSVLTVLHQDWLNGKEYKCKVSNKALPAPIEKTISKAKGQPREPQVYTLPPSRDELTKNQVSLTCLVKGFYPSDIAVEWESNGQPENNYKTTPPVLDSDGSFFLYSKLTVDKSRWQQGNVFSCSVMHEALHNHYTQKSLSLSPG
# light: B3 light
# Legend:
# Test in all cases: cell-based or functional assay
# human NPRA [1] = molecular target: T1, human NPRA
# rat NPR-A = molecular target: T2, rat NPR-A
# human NPRA [2] = molecular target: T3, human NPRA; remark: listed apart in the source
binder,measurement,setting,value
B1,activity rcs,human NPRA [1],20%
same,average rel logEC50,human NPRA [1],-0.1 delta logEC50 vs TPP-5661
same,rel. activity rcs,human NPRA [1],-0.1 delta logEC50 vs TPP-5661
same,rel. logEC50 pcs 5,human NPRA [1],-0.1 delta logEC50 vs TPP-5661
B2,activity rcs,human NPRA [1],94%
same,average rel logEC50,human NPRA [1],-0.2 delta logEC50 vs TPP-5661
same,rel. activity rcs,human NPRA [1],0.1 delta logEC50 vs TPP-5661
same,rel. logEC50 pcs 2,human NPRA [1],-0.6 delta logEC50 vs TPP-5661
same,rel. logEC50 pcs 3,human NPRA [1],0.2 delta logEC50 vs TPP-5661
same,rel. logEC50 pcs 4,human NPRA [1],-0.3 delta logEC50 vs TPP-5661
B3,"EC50, fluorescence signal of rat NPR-A / CNGA2 (cGMP biosensor) / GCaMP6 CHO reporter cells",rat NPR-A,1200 nM
same,EC50 on rNPRA reporter cells,rat NPR-A,> 1000 nM
B4,activity rcs,human NPRA [1],36%
same,average rel logEC50,human NPRA [1],0 delta logEC50 vs TPP-5661
same,rel. activity rcs,human NPRA [1],0 delta logEC50 vs TPP-5661
same,rel. logEC50* pcs,human NPRA [1],0 delta logEC50 vs TPP-5661
same,rel. logEC50 ics,human NPRA [1],0 delta logEC50 vs TPP-5661
same,rel. logEC50 pcs 1,human NPRA [1],0 delta logEC50 vs TPP-5661
same,rel. logEC50 pcs 2,human NPRA [1],0 delta logEC50 vs TPP-5661
same,rel. logEC50 pcs 3,human NPRA [1],0 delta logEC50 vs TPP-5661
same,rel. logEC50 pcs 4,human NPRA [1],0 delta logEC50 vs TPP-5661
same,rel. logEC50 pcs 5,human NPRA [1],0 delta logEC50 vs TPP-5661
same,rel. logEC50 pcs 6,human NPRA [1],0 delta logEC50 vs TPP-5661
same,rel. logEC50 pcs 7,human NPRA [1],0 delta logEC50 vs TPP-5661
same,rel. logEC50 pcs 8,human NPRA [1],0 delta logEC50 vs TPP-5661
same,rel. logEC50 pcs 9,human NPRA [1],0 delta logEC50 vs TPP-5661
B5,"activity rcs (cGMP, hNPRA-CHO k1)",human NPRA [2],41%
same,average rel logEC50 (vs TPP-5661),human NPRA [2],-0.3
same,"rel. logEC50* pcs (vs TPP-5661, hNPRA-HEK293)",human NPRA [2],-0.5 and -0.6 and -0.4
same,"rel. logEC50 pcs 4 (vs TPP-5661, hNPRA-CHO k1)",human NPRA [2],-0.2
same,"rel. logEC50 pcs 7 (vs TPP-5661, hNPRA-CHO k1)",human NPRA [2],0
B6,average rel logEC50 (vs TPP-5661),human NPRA [2],-0.7
same,"rel. logEC50* pcs (vs TPP-5661, hNPRA-HEK293)",human NPRA [2],-0.6 and -0.8
B7,average rel logEC50 (vs TPP-5661),human NPRA [2],-0.8
same,"rel. logEC50* pcs (vs TPP-5661, hNPRA-HEK293)",human NPRA [2],-0.7 and -0.8
B8,"activity rcs (cGMP, hNPRA-CHO k1)",human NPRA [2],71%
same,average rel logEC50 (vs TPP-5661),human NPRA [2],-0.1
same,"rel. logEC50 pcs 2 (vs TPP-5661, hNPRA-CHO k1)",human NPRA [2],-0.3
same,"rel. logEC50 pcs 3 (vs TPP-5661, hNPRA-CHO k1)",human NPRA [2],-0.2
same,"rel. logEC50 pcs 7 (vs TPP-5661, hNPRA-CHO k1)",human NPRA [2],0
B9,average rel logEC50,human NPRA [1],-0.3 delta logEC50 vs TPP-5661
same,rel. logEC50 pcs 9,human NPRA [1],-0.3 delta logEC50 vs TPP-5661
B10,"activity rcs (cGMP, hNPRA-CHO k1)",human NPRA [2],67%
same,average rel logEC50 (vs TPP-5661),human NPRA [2],-0.6
same,"rel. logEC50 pcs 5 (vs TPP-5661, hNPRA-CHO k1)",human NPRA [2],-0.4
same,"rel. logEC50 pcs 6 (vs TPP-5661, hNPRA-CHO k1)",human NPRA [2],-0.8
B11,"activity rcs (cGMP, hNPRA-CHO k1)",human NPRA [2],30%
same,average rel logEC50 (vs TPP-5661),human NPRA [2],0.1
same,"rel. activity rcs (delta logEC50 vs TPP-5661, hNPRA-CHO k1)",human NPRA [2],0.3
same,"rel. logEC50 pcs 1 (vs TPP-5661, hNPRA-CHO k1)",human NPRA [2],0.3
same,"rel. logEC50 pcs 2 (vs TPP-5661, hNPRA-CHO k1)",human NPRA [2],-0.2
same,"rel. logEC50 pcs 4 (vs TPP-5661, hNPRA-CHO k1)",human NPRA [2],0.1
same,"rel. logEC50 pcs 5 (vs TPP-5661, hNPRA-CHO k1)",human NPRA [2],0.2
B12,"activity rcs (cGMP, hNPRA-CHO k1)",human NPRA [2],72%
same,average rel logEC50 (vs TPP-5661),human NPRA [2],-0.4
same,"rel. activity rcs (delta logEC50 vs TPP-5661, hNPRA-CHO k1)",human NPRA [2],-0.9
same,"rel. logEC50 pcs 5 (vs TPP-5661, hNPRA-CHO k1)",human NPRA [2],-0.9
same,"rel. logEC50 pcs 6 (vs TPP-5661, hNPRA-CHO k1)",human NPRA [2],-0.4
same,"rel. logEC50 pcs 7 (vs TPP-5661, hNPRA-CHO k1)",human NPRA [2],0.2
B13,average rel logEC50 (vs TPP-5661),human NPRA [2],-0.5
same,"rel. logEC50 pcs 5 (vs TPP-5661, hNPRA-CHO k1)",human NPRA [2],0
same,"rel. logEC50 pcs 6 (vs TPP-5661, hNPRA-CHO k1)",human NPRA [2],-0.9
B14,activity rcs,human NPRA [1],84%
same,average rel logEC50,human NPRA [1],-0.5 delta logEC50 vs TPP-5661
same,rel. logEC50 pcs 2,human NPRA [1],-0.8 delta logEC50 vs TPP-5661
same,rel. logEC50 pcs 3,human NPRA [1],-0.1 delta logEC50 vs TPP-5661
B15,"activity rcs (cGMP, hNPRA-CHO k1)",human NPRA [2],83%
same,average rel logEC50 (vs TPP-5661),human NPRA [2],-0.8
same,"rel. activity rcs (delta logEC50 vs TPP-5661, hNPRA-CHO k1)",human NPRA [2],-0.8
same,"rel. logEC50 pcs 5 (vs TPP-5661, hNPRA-CHO k1)",human NPRA [2],-0.8
